Key:
[1] = biological target: Histone H2B (X. laevis), in the nucleosome core particle (X. laevis, UniProt P02281 1-126); experiment: crystal structure; Orc1 BAH L79I mixed with nucleosome 3:1, complex purified by gel filtration; sitting drop at 4 °C, 6 mM Na-cacodylate pH 6.0, 0.4 mM spermine-HCl, 2 mM MgCl2, 1.75% PEG 400; 3.3 Å; conditions: both partners purified
[2] = biological target: T1, Histone H4 (X. laevis), in the nucleosome core particle (X. laevis, UniProt P62799 1-103); experiment: as above; conditions: both partners purified
T1 construct: histone H4, X. laevis; Stood in the crystal as part of the nucleosome m12; source: bacterial expression vector

B1: Orc1 BAH L79I mutant (domain or fragment)
chain: MAKTLKDLQGWEIITTDEQGNIIDGGQKRLRRRGAKTEHYLKRSSDGIKLGRGDSVVMHNEAAGTYSVYMIQELRLNTINNVVELWALTYLRWFEVNPLAHYRQFNPDANILNRPLNYYNKLFSETANKNELYLTAELAELQLFNFIRVANVMDGSKWEVLKGNVDPERDFTVRYICEPTGEKFVDINIEDVKAYIKKVEPREAQEYLKDLTLP
modifications: N-alpha-acetyl on A2 (acetylated N-terminus visible in the structure)
notes: Orc1 BAH domain, S. cerevisiae, amino acids 1-214, L79I; Used for the crystal structure and in EMSA; source: SF9 insect cells (baculovirus), purified (Ni-NTA, SP-Sepharose FF, Superdex-200)
binding result [1]: binds
binding result [2]: binds
